The sequences below were run on Nme2Cas9 (Neisseria meningitidis) (assay: cell_activity). Conditions: PAM N4CC; HEK293T, TIDE.

Sequence | activity [% indels]
GCCUCCCUGCAGGGCUGCUCCC / GCCTCCCTGCAGGGCTGCTCCCCAGCCCAA / TTGGGCTGGGGAGCAGCCCTGCAGGGAGGC [TS6 sgRNA spacer ; TS6 LINC01588 target + PAM] | 20
GGAGUCGCCAGAGGCCGGUGGUGG / GGAGTCGCCAGAGGCCGGTGGTGGATTTCCTC / GAGGAAATCCACCACCGGCCTCTGGCGACTCC [TS16 sgRNA spacer ; TS16 LINC01588 target + PAM] | 28
GUGUGUCCCUCUCCCCACCCGUCC / GTGTGTCCCTCTCCCCACCCGTCCCTGTCCGG / CCGGACAGGGACGGGTGGGGAGAGGGACACAC [TS47 sgRNA spacer ; TS47 VEGFA target + PAM] | 23.1

From patent US20220290113
